Measurements from patent US7902341B2, “Methods and compositions for modulating somatolactogenic functions” (Trustees of the University of Pennsylvania, priority 1999, dated 2011).

B1: Myc-tagged PRL: recombinant human PRL with myc-tag expressed in Drosophila S2 cells (protein)
chain: LPICPGGAARCQVTLRDLFDRAVVLSHYIHNLSSEMFSEFDKRYTHGRGFITKAINSCHTSSLATPEDKEQAQQMNQKDFLSLIVSILRSWNEPLYHLVTEVRGMQEAPEAILSKAVEIEEQTKRLLEGMELIVSQVHPETKENEIYPVWSGLPSLQMADEESRLSAYYNLLHCLRRDSHKIDNYLKLLKCRIIHNNNC
modifications: left off: small tags and cut ends
notes: recombinant human PRL with myc-tag expressed in Drosophila S2 cells
B2: PRL: human prolactin, pituitary isolated or recombinant (protein)
chain: LPICPGGAARCQVTLRDLFDRAVVLSHYIHNLSSEMFSEFDKRYTHGRGFITKAINSCHTSSLATPEDKEQAQQMNQKDFLSLIVSILRSWNEPLYHLVTEVRGMQEAPEAILSKAVEIEEQTKRLLEGMELIVSQVHPETKENEIYPVWSGLPSLQMADEESRLSAYYNLLHCLRRDSHKIDNYLKLLKCRIIHNNNC
modifications: left off: small tags and cut ends
notes: human prolactin, pituitary isolated or recombinant

Tested on: Nb2 cells
Assay: Nb2 cell proliferation (3H-thymidine) to assess CypB modulation of somatolactogenic action
Format: cell-based, rat
Procedure: The effect of exogenous CypB on PRL-driven proliferation was examined with the rat Nb2 T-cell and the human T47D breast cancer line. […] This dose-dependent biphasic effect was most prominent at physiologic concentrations (5-10 mM) of CypB and PRL (50 pM) found in human serum. […] To determine the effect of CypB on cellular growth driven by the larger family of cytokines, to which PRL belongs, proliferation driven by interleukin-2 (IL-2), IL-3 and GH was examined.
Nb2-cells (5×10^4; PRL-dependent, rat T-lymphoma) were plated in each well of 96 well plates in a defined DMEM-serum free medium (0.1 mM 2-mercaptoethanol, 1% penicillin/streptomycin, and 1% ITS+(Calbiochem)). Cells were rested for 24 hours at 37° C. in this defined medium in the absence of PRL before the addition of 5-500 pM PRL (either as human pituitary isolated PRL, National Hormone and Pituitary Program, NIDDK; recombinant human PRL from E. coli, Genzyme; or recombinant human PRL from Drosophila S2 cells) alone or premixed with 1-2000 fold excess of purified CypB. Parallel studies were performed using human pituitary-derived GH (National Hormone and Pituitary Program, NIDDK). Cultures were incubated for 48 hours at 37° C. and proliferation was evaluated by the addition of 0.5 μCi of ^3H-thymidine for four hours followed by harvesting and scintillography. […]

Row | Molecule | bioactivity in Nb2 bioassays (protein secreted by Drosophila S2 cells) | PRL concentration at which the sigmoid Nb2 growth curve plateaus (Nb2 cells stimulated with PRL alone)
1 | B1 | functionally bioactive | –
2 | B2 | – | approximately 2 ng PRL/ml
